Assay results reported in patent US20030138894A1 (Human Genome Sciences, published 2003).
Positions of bridges follow the written chain, without caps; N, C: chain ends. No end group written: not given here.

B1: DX-601 Ac-GDGFTCSPIRMFPWFRCDLGDPEGGG-NH2 (peptide)
peptide: Ac-GDGFTCSPIRMFPWFRCDLGDPEGGG-NH2
modifications: disulfide 6-17 (inferred); not fully specified; printed as Ac-GDGFTCSPIRMFPWFRCDLGDPEGGG-NH2
B2: DX-512 Ac-GDRLHCKPQRQSPWMKCQHLDPEGGG-NH2 (peptide)
peptide: Ac-GDRLHCKPQRQSPWMKCQHLDPEGGG-NH2
modifications: disulfide 6-17 (inferred); also: oxidized peptide
notes: synthetic, TN12 library; also called B-H7
B3: DX-513 Ac-GDLHACRPVRGDPWWACTLGDPEGGG-NH2 (peptide)
peptide: Ac-GDLHACRPVRGDPWWACTLGDPEGGG-NH2
modifications: disulfide 6-17 (inferred); also: oxidized peptide
notes: synthetic, TN12 library; also called ACEH2-D8
B4: ACE-2 binding polypeptide RLHCKPQRQSPWMKCQHL (peptide)
peptide: RLHCKPQRQSPWMKCQHL
modifications: not fully specified (N-terminus, C-terminus, bridges); cysteine pairing not given here
B5: ACE-2 binding polypeptide SDWCGTWNNPCFHQ (peptide)
peptide: SDWCGTWNNPCFHQ
modifications: not fully specified (N-terminus, C-terminus, bridges); cysteine pairing not given here
B6: ACE-2 binding polypeptide WEVCHWAPMMCKHG (peptide)
peptide: WEVCHWAPMMCKHG
modifications: not fully specified (N-terminus, C-terminus, bridges); cysteine pairing not given here
B7: ACE-2 binding polypeptide RYLCLPQRDKPWKFCNWF (peptide)
peptide: RYLCLPQRDKPWKFCNWF
modifications: not fully specified (N-terminus, C-terminus, bridges); cysteine pairing not given here
B8: ACE-2 binding polypeptide QKECKFGYPHCLPW (peptide)
peptide: QKECKFGYPHCLPW
modifications: not fully specified (N-terminus, C-terminus, bridges); cysteine pairing not given here
B9: ACE-2 binding polypeptide YSHCSPLRYYPWWKCTYP (peptide)
peptide: YSHCSPLRYYPWWKCTYP
modifications: not fully specified (N-terminus, C-terminus, bridges); cysteine pairing not given here

Target: T1, recombinant human-ACE-2 (human, UniProt Q9BYF1 18-740, limits assumed)
Experiment: cell-based or functional assay

T1 sequence (Q9BYF1 18-740 limits assumed): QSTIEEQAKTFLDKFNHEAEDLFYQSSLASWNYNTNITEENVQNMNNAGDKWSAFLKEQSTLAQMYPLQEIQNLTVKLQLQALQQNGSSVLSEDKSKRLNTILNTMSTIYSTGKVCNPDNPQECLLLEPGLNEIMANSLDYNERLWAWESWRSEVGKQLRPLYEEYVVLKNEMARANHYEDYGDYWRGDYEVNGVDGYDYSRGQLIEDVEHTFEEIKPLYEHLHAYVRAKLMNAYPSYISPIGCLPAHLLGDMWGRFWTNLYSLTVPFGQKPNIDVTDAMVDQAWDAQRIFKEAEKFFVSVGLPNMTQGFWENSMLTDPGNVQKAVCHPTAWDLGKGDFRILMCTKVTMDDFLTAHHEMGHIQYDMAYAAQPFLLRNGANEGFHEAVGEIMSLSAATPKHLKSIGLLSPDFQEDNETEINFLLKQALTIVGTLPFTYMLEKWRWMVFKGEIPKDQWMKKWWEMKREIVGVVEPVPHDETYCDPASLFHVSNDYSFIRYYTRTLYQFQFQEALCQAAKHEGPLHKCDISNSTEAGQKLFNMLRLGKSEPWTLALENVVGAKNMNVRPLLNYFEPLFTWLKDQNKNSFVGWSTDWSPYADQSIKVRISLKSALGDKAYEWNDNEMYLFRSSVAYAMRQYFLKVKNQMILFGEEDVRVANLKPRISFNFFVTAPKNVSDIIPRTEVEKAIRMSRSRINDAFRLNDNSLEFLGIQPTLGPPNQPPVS

| Binder | IC50 |
| --- | --- |
| B1 | 68 nM |
| Ac-GSRIGCRDSRCNWWAPGEGGG-NH2 (disulfide 6-11 (inferred); also: oxidized peptide) [DX-524 Ac-GSRIGCRDSRCNWWAPGEGGG-NH2] | 600 nM |
| B2 | 60 nM |
| Ac-AGSDWCGTWNNPCFHQGTEGGG-NH2 (disulfide 6-13 (inferred); also: oxidized peptide) [DX-531 Ac-AGSDWCGTWNNPCFHQGTEGGG-NH2] | 500 nM |
| B3 | 90 nM |
| Ac-AGQKECKFGYPHCLPWGTEGGG-NH2 (disulfide 6-13 (inferred); also: oxidized peptide) [DX-530 Ac-AGQKECKFGYPHCLPWGTEGGG-NH2] | 30000 nM |
| Ac-GDRYLCLPQRDKPWKFCNWFDPEGGG-NH2 (disulfide 6-17 (inferred); also: oxidized peptide) [DX-599 Ac-GDRYLCLPQRDKPWKFCNWFDPEGGG-NH2] | 140 nM |
| Ac-GDFSPCKALRHSPWWVCPSGDPEGGG-NH2 (disulfide 6-17 (inferred); also: oxidized peptide) [DX-602 Ac-GDFSPCKALRHSPWWVCPSGDPEGGG-NH2] | 120 nM |
| Ac-AGWEVCHWAPMMCKHGGTEGGG-NH2 (disulfide 6-13 (inferred); also: oxidized peptide) [DX-529 Ac-AGWEVCHWAPMMCKHGGTEGGG-NH2] | 400 nM |
| Ac-GSRGFCRDSSCSFPAPGEGGG-NH2 (disulfide 6-11 (inferred); also: oxidized peptide) [DX-525 Ac-GSRGFCRDSSCSFPAPGEGGG-NH2] | 1000 nM |

Target: T1, recombinant human-ACE-2
Experiment: fluorometric ACE-2 activity assay, M-2195 substrate
Description: Assay mixture was prepared first by pre-incubating (30 minutes, room temperature) the enzyme with the inhibitor (0.45 μg ([…]) ACE-2, 0-0.5 μM inhibitor rage, up to 90 […] volume with 100 mM TRIS pH 7.4, 0.1% Tween-20, 0.4% DMSO) in each well, in triplicate, by dispensing volumes using a repeat pipetter (Rainin) into a 96-well clear-bottom back plate (Costar, 07-200-590). […] Substrate stock (10 μL of 10× concentration) was added to each well to be tested in blocks of three vertically down the plate. The reaction was monitored on a Spectrafluor Plus (Tecan) at an excitation wavelength of 340 nm and an emission wavelength of 400 nm (+/−35 nm) every 30 seconds for a time period of 10 minutes.

| Binder | Ki |
| --- | --- |
| B2 | 150 nM |
| B3 | 150 nM |

Target: T2, FLAG-tagged ACE-2 target (human, UniProt Q9BYF1 18-740)
T2 construct: range 1-740; obtained from Human Genome Sciences, Inc; also called FLAG-ACE-2; tagged human ACE-2; not shown: FLAG tag
Experiment: phage ELISA on FLAG-ACE-2
Description: Phage enriched from the third round of selection were screened by ELISA for strong ACE-2 binders. Immulon 2 96-well plates (Dynatech) were coated with streptavidin for 1 hour at 37° C. and subsequently coated with anti-FLAG antibody for 1 hour at room temperature. Half of the plates were further coated with FLAG-ACE-2 as the target plates, and the other half of the plates were coated with FLAG peptide as background plates. The amount of each protein or peptide coated was 100 ng per well. The coated plates were then incubated for 1 hour at room temperature with 1:2 diluted overnight phage cultures that were made by inoculating phage from individual plaques into bacterial host cells. After being washed 7 times with PBST, the plates were incubated with HRP-conjugated anti-M13 antibody (Pharmacia) for 1 hour at room temperature, washed 5 times, developed with TMB peroxidase substrate solution (Kirkegaad & Perry Laboratories, Gaithersburg, Md.), and read at 630 nm on an ELISA plate reader.

T2 sequence (Q9BYF1 18-740 limits assumed): as the sequence (Q9BYF1 18-740 limits assumed) above

| Binder | binding result |
| --- | --- |
| B4 | binds |
| B5 | binds |
| B6 | binds |
| YEFCHYAPQECKHM (not fully specified (bridges); cysteine pairing not given here) [ACE-2 binding polypeptide YEFCHYAPQECKHM] | binds |
| EHNCTWWNPCWTT (not fully specified (bridges); cysteine pairing not given here) [ACE-2 binding polypeptide EHNCTWWNPCWTT] | binds |
| B7 | binds |
| LEMCEALFCVEF (disulfide 4-9 (inferred); not fully specified (N-terminus, C-terminus)) [ACE-2 binding polypeptide LEMCEALFCVEF] | binds |
| B8 | binds |
| MDHCTWYQPCVLK (not fully specified (bridges); cysteine pairing not given here) [ACE-2 binding polypeptide MDHCTWYQPCVLK] | binds |
| LHACRPVRGDPWWACTLG (disulfide 4-15 (inferred); not fully specified (N-terminus, C-terminus)) [ACE-2 binding polypeptide LHACRPVRGDPWWACTLG] | binds |
| B9 | binds |
| WDHCNWAHPCSRK (not fully specified (bridges); cysteine pairing not given here) [ACE-2 binding polypeptide WDHCNWAHPCSRK] | binds |
